Test results from patent publication US20140286957A1 (Teva, published 2014).
Positions count from the first letter of the chain named. Numbers in names are those of the source. Read-outs that look alike come from different tables or passages of the source. One block for each binder: values may come before it.

Columns and labels:
Human CD1d/β2M [1] = target: T1, Human CD1d/β2M (human, UniProt P15813 20-301; P61769 21-119); assay: SPR, transfection supernatant
T1 construct: also called hCD1d; recombinant human CD1d

Human CD1d on cells [2] = target: T2, Human CD1d on cells (human, UniProt P15813 20-335); assay: cell-based or functional assay
T2 sequence (looked up): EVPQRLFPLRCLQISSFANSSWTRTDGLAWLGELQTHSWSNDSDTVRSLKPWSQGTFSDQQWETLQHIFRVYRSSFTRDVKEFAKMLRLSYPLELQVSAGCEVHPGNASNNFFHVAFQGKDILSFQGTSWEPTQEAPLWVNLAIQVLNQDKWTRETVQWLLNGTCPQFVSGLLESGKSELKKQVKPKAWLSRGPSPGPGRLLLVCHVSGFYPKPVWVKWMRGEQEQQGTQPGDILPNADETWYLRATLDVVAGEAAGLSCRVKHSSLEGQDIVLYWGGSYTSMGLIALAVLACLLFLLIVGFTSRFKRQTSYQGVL

Human CD1d/β2M [3] = target: T1, Human CD1d/β2M; assay: SPR
Human CD1d on cells [4] = target: T2, Human CD1d on cells; assay: cell-based or functional assay; remark: listed apart in the source
Human CD1d on cells [5] = target: T2, Human CD1d on cells; assay: cell-based or functional assay; remark: listed apart in the source
Human CD1d on cells [6] = target: T2, Human CD1d on cells; assay: cell-based or functional assay; remark: listed apart in the source
Human CD1d on cells [7] = target: T2, Human CD1d on cells; assay: cell-based or functional assay; remark: listed apart in the source

B1: 401.11.50 (antibody, name in Kabat numbering, V domains shown)
VH: QVQLVGSGGGLVKPGRSLRLSCAASGFTFDDYAMHWVRQAPGKGLEWVATIIWNSAIIGYADSVKGRFIVSRDNAKNSLYLQMNSLRAEDMALYYCAKDGCSSSGCPDGYFDSWGQGTLVTVSS
VL: DIQMTQSPSSVSASVGDRVTITCRASQHISSWLAWYQQKPGKAPNLLIYAASSLQSGVSSRFSGSGSGTDFTLTISSLQPEDFATYYCQQANRFPLTFGGGTKLEIKR
- Kd (Human CD1d/β2M [1]): 0.187 nM

B2: 401.11.69 (antibody, name in Kabat numbering, V domains shown)
VH: B1 VH with G100M, S103D
VL: B1 VL
- Kd (Human CD1d/β2M [1]): 0.144 nM

B3: 401.11.74 (antibody, name in Kabat numbering, V domains shown)
VH: B1 VH with G100M, S103K
VL: B1 VL
- Kd (Human CD1d/β2M [1]): 0.0933 nM

B10: 401.11.70 (antibody, name in Kabat numbering, V domains shown)
VH: B1 VH with G100M, S103T
VL: B1 VL
- Kd (Human CD1d/β2M [1]): 0.549 nM

B12: 401.11.61 (antibody, name in Kabat numbering, V domains shown)
VH: B1 VH with G100M, S102T
VL: B1 VL
- Kd (Human CD1d/β2M [1]): 0.242 nM

B14: 401.11.65 (antibody, name in Kabat numbering, V domains shown)
VH: B1 VH with G100M, S102K
VL: B1 VL
- Kd (Human CD1d/β2M [1]): 1.67 nM

B18: 401.11.66 (antibody, name in Kabat numbering, V domains shown)
VH: B1 VH with G100M, S102R
VL: B1 VL
- Kd (Human CD1d/β2M [1]): 0.156 nM

B20: 401.11.68 (antibody, name in Kabat numbering, V domains shown)
VH: B1 VH with G100M, S102G
VL: B1 VL
- Kd (Human CD1d/β2M [1]): 1.17 nM

B21: 401.11.72 (antibody, name in Kabat numbering, V domains shown)
VH: B1 VH with G100M, S103L
VL: B1 VL
- Kd (Human CD1d/β2M [1]): 0.649 nM

B23: 401.11.71 (antibody, name in Kabat numbering, V domains shown)
VH: B1 VH with G100M, S103W
VL: B1 VL
- Kd (Human CD1d/β2M [1]): < 0.01 nM

B27: 401.11.73 (antibody, name in Kabat numbering, V domains shown)
VH: B1 VH with G100M, S103V
VL: B1 VL
- Kd (Human CD1d/β2M [1]): 0.527 nM

B28: 401.11.64 (antibody, name in Kabat numbering, V domains shown)
VH: B1 VH with G100M, S102V
VL: B1 VL
- Kd (Human CD1d/β2M [1]): 0.23 nM

B30: 401.11.67 (antibody, name in Kabat numbering, V domains shown)
VH: B1 VH with G100M, S102Y
VL: B1 VL
- Kd (Human CD1d/β2M [1]): 0.0485 nM

B32: 401.11.63 (antibody, name in Kabat numbering, V domains shown)
VH: B1 VH with G100M, S102L
VL: B1 VL
- Kd (Human CD1d/β2M [1]): 0.189 nM

B33: 402.8.54 (antibody, IgG4, V domains shown)
VH: QVQLQESGPGLVKPSETLSLTCAVYGGSFSGYYWSWIRQPPGKGLEWIGEINHAGSTNYNPSLKSRVTISVDTSKNQFSLKLSSVTAADTAVYYCARGEIYDFWKSYMEVWGKGTTVTVSS
VL: QTVVTQEPSLTVSPGGTVTLTCASSSGAVSSGNFPNWFQQKPGQAPRALIFSASNKHSWTPARFSGSLLGGKAVLTLSGVQPEDEAEYYCLLYFGDTQLGVFGGGTKVTVL
- NKT IFN-γ EC50 (moDC) (Human CD1d on cells [7]): 138 ng/mL
- NKT IL-4 EC50 (moDC) (Human CD1d on cells [7]): 109 ng/mL

The remaining lines, values ahead:

- binding result (Human CD1d/β2M [1]): no binding
B4: 401.11.75 (antibody, name in Kabat numbering, V domains shown)
VH: B1 VH with G100M, S103R
VL: B1 VL

- Kd (Human CD1d/β2M [1]): 1.55 nM
B5: 401.11.83 (antibody, name in Kabat numbering, V domains shown)
VH: B1 VH with G100M, S104K
VL: B1 VL

- NKT IFN-γ EC50 (moDC) (Human CD1d on cells [2]): 49.5 ng/mL
- NKT IL-4 EC50 (moDC) (Human CD1d on cells [2]): 1.31 ng/mL
- NKT IL-5 EC50 (moDC) (Human CD1d on cells [2]): 3.35 ng/mL
- NKT IL-13 EC50 (moDC) (Human CD1d on cells [2]): 4.09 ng/mL
B6: 401.11.180 (antibody, IgG4, V domains shown)
VH: B1 VH with M91T, G100L, S104G, D108E
VL: B1 VL with N45K, S59P

- Kd (Human CD1d/β2M [1]): 1.12 nM
B7: 401.11.84 (antibody, name in Kabat numbering, V domains shown)
VH: B1 VH with G100M, S104R
VL: B1 VL

- Kd (Human CD1d/β2M [3]): 0.274 nM
- NKT IFN-γ EC50 (moDC) (Human CD1d on cells [2]): 30.2 ng/mL
- NKT IL-4 EC50 (moDC) (Human CD1d on cells [2]): 0.73 ng/mL
- NKT IL-5 EC50 (moDC) (Human CD1d on cells [2]): 2.1 ng/mL
- NKT IL-13 EC50 (moDC) (Human CD1d on cells [2]): 2.43 ng/mL
B8: 401.11.179 (antibody, IgG4, V domains shown)
VH: B1 VH with M91T, G100M, S104G, D108E
VL: B1 VL with N45K, S59P
notes: IgG4 (S228P)

- Kd (Human CD1d/β2M [3]): 0.507 nM
- NKT IFN-γ EC50 (moDC) (Human CD1d on cells [2]): 7.56 ng/mL
- NKT IL-4 EC50 (moDC) (Human CD1d on cells [2]): 0.731 ng/mL
- NKT IL-5 EC50 (moDC) (Human CD1d on cells [2]): 1.4 ng/mL
- NKT IL-13 EC50 (moDC) (Human CD1d on cells [2]): 1.27 ng/mL
B9: 401.11.177 (antibody, V domains shown)
VH: B1 VH with M91T, G100I, S104G
VL: DIQMTQSPSSVSASVGDRVTITCRASQHISSWLAWYQQKPGKAPKLLIYAASSLQSGVPSRFSGSGSGTDFTLTISSLQPEDFATYYCQQANRFPLTFGGGTKLEIK

- NKT IL-4 EC50 (moDC) (Human CD1d on cells [4]): 12.9 ng/mL
- NKT IL-13 EC50 (moDC) (Human CD1d on cells [4]): 57.5 ng/mL
B11: 401.11.151 (antibody, IgG4, V domains shown)
VH: B1 VH with Q1E, G6E, K13Q, M91T, G100M
VL: B1 VL with N45K, S59P

- Kd (Human CD1d/β2M [1]): 0.552 nM
B13: 401.11.81 (antibody, name in Kabat numbering, V domains shown)
VH: B1 VH with G100M, S104L
VL: B1 VL

- NKT IFN-γ EC50 (THP-1) (Human CD1d on cells [5]): 6.98 ng/mL
- NKT IL-4 EC50 (THP-1) (Human CD1d on cells [5]): 2.75 ng/mL
- NKT IL-5 EC50 (THP-1) (Human CD1d on cells [5]): 5.38 ng/mL
- NKT IL-13 EC50 (THP-1) (Human CD1d on cells [5]): 7.25 ng/mL
- NKT TNF EC50 (THP-1) (Human CD1d on cells [5]): 4.02 ng/mL
- Kd (Human CD1d/β2M [3]): 0.173 nM
B15: 401.11.166 (antibody, IgG4, V domains shown)
VH: B1 VH with Q1E, G6E, K13Q, M91T, G100M, S104G
VL: B1 VL with N45K
notes: IgG4 (S228P)

- Kd (Human CD1d/β2M [1]): 82.3 nM
B16: 401.11.85 (antibody, name in Kabat numbering, V domains shown)
VH: B1 VH with G100M, S104Y
VL: B1 VL

- binding result (Human CD1d/β2M [1]): no binding
B17: 401.11.82 (antibody, name in Kabat numbering, V domains shown)
VH: B1 VH with G100M, S104V
VL: B1 VL

- Kd (Human CD1d/β2M [1]): 2.34 nM
B19: 401.11.80 (antibody, name in Kabat numbering, V domains shown)
VH: B1 VH with G100M, S104W
VL: B1 VL

- binding result (Human CD1d/β2M [1]): no binding
B22: 401.11.79 (antibody, name in Kabat numbering, V domains shown)
VH: B1 VH with G100M, S104T
VL: B1 VL

- Kd (Human CD1d/β2M [1]): 0.272 nM
B24: 401.11.77 (antibody, name in Kabat numbering, V domains shown)
VH: B1 VH with G100M, S103G
VL: B1 VL

- NKT IFN-γ EC50 (THP-1) (Human CD1d on cells [6]): 3.25 ng/mL
- NKT IFN-γ EC50 (moDC) (Human CD1d on cells [6]): 2.63 ng/mL
- NKT IL-4 EC50 (THP-1) (Human CD1d on cells [6]): 3.19 ng/mL
- NKT IL-4 EC50 (moDC) (Human CD1d on cells [6]): 1.1 ng/mL
- NKT IL-13 EC50 (THP-1) (Human CD1d on cells [6]): 5.04 ng/mL
B25: 401.11.181 (antibody, IgG4, V domains shown)
VH: B1 VH with G6E, M91T, G100M, S104G
VL: B1 VL with N45K, S59P

- NKT IL-4 EC50 (moDC) (Human CD1d on cells [4]): 1.69 ng/mL
- NKT IL-13 EC50 (moDC) (Human CD1d on cells [4]): 10.5 ng/mL
B26: 401.11.159 (antibody, IgG4, V domains shown)
VH: B1 VH with Q1E, G6E, K13Q, G100M, S104G
VL: B1 VL with N45K

- NKT IFN-γ EC50 (THP-1) (Human CD1d on cells [5]): 6.51 ng/mL
- NKT IL-4 EC50 (THP-1) (Human CD1d on cells [5]): 2.89 ng/mL
- NKT IL-5 EC50 (THP-1) (Human CD1d on cells [5]): 4.98 ng/mL
- NKT IL-13 EC50 (THP-1) (Human CD1d on cells [5]): 7.46 ng/mL
- NKT TNF EC50 (THP-1) (Human CD1d on cells [5]): 4 ng/mL
- Kd (Human CD1d/β2M [3]): 0.17 nM
B29: 401.11.167 (antibody, IgG4, V domains shown)
VH: B1 VH with Q1E, G6E, K13Q, M91T, G100M, S104G
VL: B1 VL with S59P
notes: IgG4 (S228P)

- NKT IFN-γ EC50 (THP-1) (Human CD1d on cells [5]): 6.15 ng/mL
- NKT IL-4 EC50 (THP-1) (Human CD1d on cells [5]): 1.11 ng/mL
- NKT IL-5 EC50 (THP-1) (Human CD1d on cells [5]): 3.73 ng/mL
- NKT IL-13 EC50 (THP-1) (Human CD1d on cells [5]): 5.76 ng/mL
- NKT TNF EC50 (THP-1) (Human CD1d on cells [5]): 3.04 ng/mL
- Kd (Human CD1d/β2M [3]): 0.168 nM
B31: 401.11.165 (antibody, IgG4, V domains shown)
VH: B1 VH with Q1E, G6E, K13Q, M91T, G100M, S104G
VL: B1 VL with N45K, S59P
notes: IgG4 (S228P)

- NKT IFN-γ EC50 (moDC) (Human CD1d on cells [7]): 445 ng/mL
- NKT IL-4 EC50 (moDC) (Human CD1d on cells [7]): 175 ng/mL
B34: 402.8.55 (antibody, IgG4, V domains shown)
VH: B33 VH with M108L
VL: B33 VL
